Measured values reported in patent publication US20190359687A1 (Bayer, published 2019).

Target: T1, B-domain deleted FVIII (human, UniProt P00451 20-2351)
T1 construct: control without scFv; also called BDD; BDD-FVIII
T1 sequence (looked up): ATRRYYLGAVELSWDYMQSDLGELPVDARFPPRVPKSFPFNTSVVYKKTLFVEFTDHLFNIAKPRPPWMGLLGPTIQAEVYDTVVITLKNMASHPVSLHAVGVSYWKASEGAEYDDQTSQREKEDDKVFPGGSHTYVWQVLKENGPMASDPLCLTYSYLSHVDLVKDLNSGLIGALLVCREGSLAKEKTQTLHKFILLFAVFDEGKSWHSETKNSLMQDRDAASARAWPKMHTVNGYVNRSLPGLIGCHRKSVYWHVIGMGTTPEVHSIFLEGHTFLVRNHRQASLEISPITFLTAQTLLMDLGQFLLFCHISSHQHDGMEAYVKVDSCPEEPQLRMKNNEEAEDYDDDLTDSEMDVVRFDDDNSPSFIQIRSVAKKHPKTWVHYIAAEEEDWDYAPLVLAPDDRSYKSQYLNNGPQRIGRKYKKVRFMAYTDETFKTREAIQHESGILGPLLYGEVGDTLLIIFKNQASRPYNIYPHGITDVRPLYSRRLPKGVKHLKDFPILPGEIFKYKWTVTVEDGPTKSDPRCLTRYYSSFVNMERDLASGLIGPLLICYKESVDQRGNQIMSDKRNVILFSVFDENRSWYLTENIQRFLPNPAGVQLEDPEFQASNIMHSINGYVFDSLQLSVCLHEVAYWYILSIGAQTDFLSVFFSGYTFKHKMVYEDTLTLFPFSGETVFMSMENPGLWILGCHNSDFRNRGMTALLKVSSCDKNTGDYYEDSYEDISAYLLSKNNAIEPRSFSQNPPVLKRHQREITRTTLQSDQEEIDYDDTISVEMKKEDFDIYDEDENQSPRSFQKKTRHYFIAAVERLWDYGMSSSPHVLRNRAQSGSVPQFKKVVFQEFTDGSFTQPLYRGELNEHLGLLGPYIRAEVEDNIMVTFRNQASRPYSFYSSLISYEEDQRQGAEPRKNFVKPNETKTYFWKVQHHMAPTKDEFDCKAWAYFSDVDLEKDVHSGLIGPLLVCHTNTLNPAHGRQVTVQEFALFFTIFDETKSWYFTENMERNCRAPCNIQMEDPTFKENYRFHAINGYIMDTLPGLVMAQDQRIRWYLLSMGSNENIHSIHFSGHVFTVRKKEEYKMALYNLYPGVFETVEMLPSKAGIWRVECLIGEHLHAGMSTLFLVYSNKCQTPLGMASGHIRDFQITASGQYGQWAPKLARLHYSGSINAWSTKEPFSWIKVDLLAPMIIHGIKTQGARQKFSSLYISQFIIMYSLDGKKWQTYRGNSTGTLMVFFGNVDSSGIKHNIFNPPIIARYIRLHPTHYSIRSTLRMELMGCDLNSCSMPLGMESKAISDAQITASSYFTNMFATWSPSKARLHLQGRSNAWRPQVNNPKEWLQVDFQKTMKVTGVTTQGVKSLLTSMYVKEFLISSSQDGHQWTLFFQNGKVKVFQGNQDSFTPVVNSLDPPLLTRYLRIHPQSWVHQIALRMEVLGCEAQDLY
Assay: RBC partition assay, FVIII activity left in plasma

- binding result: no binding (tested: 1 IU/mL)
B1: human glycophorin A in the red blood cell membrane (other, UniProt P02724 20-150, looked up)
chain: LSTTEVAMHTSTSSSVTKSYISSQTNDTHKRDTYAATPRAHEVSEISVRTVYPPEEETGERVQLAHHFSEPEITLIIFGVMAGVIGTILLISYGIRRLIKKSPSDVKPLPSPDTDVPLSSVEIENPETSDQ
notes: whole, on cells; used for intact RBC, isolated RBC membranes and transfected cells; the assay field tells which; also called GPA; hGPA
